These results are taken from the supplement of paper PMC9732359.

The nature of the data set: protein stability index of a GFP-peptide fusion (yeast GPS) (PSI 1-4); higher = more stable; sorted into four equal gates, so the index is relative within each strain. In a few lines:
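The protein stability index of a peptide was calculated by multiplying its read frequency in each gate by that gate's number and adding the products. The peptides were tiled 17-residue stretches of yeast proteins, fused downstream of GFP on a Cherry-expressing plasmid and carried in yeast as a pooled library. Mid-log cultures in leucine-free medium were sorted into four equal gates by GFP/Cherry ratio, and each gate's plasmids were PCR-amplified and Illumina-sequenced.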

± gives the uncertainty stated by the source.

For the sequence EQTVEYMVSRAIRDGVI [RPN3], the protein stability index came to 3.47 ± 0.15 (doa10∆), 3.58 ± 0.1 (pdr5∆), 2.64 ± 0.17 (san1∆) and 3.45 ± 0.049 (ubr1∆).

Regarding ERAAQKLRLDQLVIQQG [ISW2], the protein stability index runs as follows: (doa10∆) 2.49 ± 0.11; (pdr5∆) 2.52 ± 0.094; (san1∆) 2.74 ± 0.082; (ubr1∆) 2.42 ± 0.069.

For ERGFACIPLVGISVPFH [FAS1], the protein stability index runs as follows: (doa10∆) 1.34 ± 0.06; (pdr5∆) 1.32 ± 0.07; (san1∆) 1.22 ± 0.12; (ubr1∆) 1.21 ± 0.061.

In the case of ERHQKQLNEKLVGRLRK [YCS4], the protein stability index was determined as 3.19 ± 0.12 (doa10∆), 3.18 ± 0.11 (pdr5∆), 3.02 ± 0.06 (san1∆) and 3 ± 0.065 (ubr1∆).

ERLHELKKLQSDIESAN [SMC1] registered a protein stability index (doa10∆) of 2.99 ± 0.076, a protein stability index (pdr5∆) of 3.23 ± 0.12, a protein stability index (san1∆) of 3.19 ± 0.061 and a protein stability index (ubr1∆) of 3.2 ± 0.067.

ERLKQLTPNEIKELEHL [SWP82]: the protein stability index (doa10∆) amounted to 2.83 ± 0.064, the protein stability index (pdr5∆) came to 2.84 ± 0.083, the protein stability index (san1∆) was 2.73 ± 0.049 and the protein stability index (ubr1∆) turned out to be 2.7 ± 0.054.

ERLMISSDAFEVDVCDK [RET1]: the protein stability index reads like this: (doa10∆) 2.31 ± 0.11; (pdr5∆) 2.63 ± 0.05; (san1∆) 2.04 ± 0.061; (ubr1∆) 2.21 ± 0.061.

Regarding ERLTNSLMMNGRNNGKK [RPS5], the protein stability index by setting is: (doa10∆) 2.98 ± 0.099; (pdr5∆) 3.02 ± 0.088; (san1∆) 2.54 ± 0.071; (ubr1∆) 2.62 ± 0.09.

Regarding ERNAFLSDYEVLKFLTD [RPC17], the protein stability index came to 3.44 ± 0.096 (doa10∆), 3.04 ± 0.087 (pdr5∆), 3.28 ± 0.05 (san1∆) and 3.05 ± 0.086 (ubr1∆).

Turning to ERNNIGEICKNYELEKI [YDL116W/NUP84], the protein stability index (doa10∆) was determined as 2.91 ± 0.14, the protein stability index (pdr5∆) was determined as 2.82 ± 0.095, the protein stability index (san1∆) turned out to be 2.94 ± 0.09 and the protein stability index (ubr1∆) is 2.62 ± 0.059.

Take ERQQDELENFLDNFETK [YJL041W/NSP1]: the protein stability index reads like this: (doa10∆) 3.23 ± 0.16; (pdr5∆) 3.29 ± 0.21; (san1∆) 3.48 ± 0.13; (ubr1∆) 3.38 ± 0.075.

ERSKQLNEKFQELRKKV [SMC2] registered a protein stability index (pdr5∆) of 2.78 ± 0.24, a protein stability index (san1∆) of 3.33 ± 0.097 and a protein stability index (ubr1∆) of 2.81 ± 0.15.

For ERVIVVTGFAEVGPWGS [FAS2], the protein stability index by setting is: (doa10∆) 1.16 ± 0.085; (pdr5∆) 1.36 ± 0.083; (san1∆) 2.03 ± 0.11; (ubr1∆) 1.47 ± 0.074.

For ESDNYRLLPNGSNKAQI [YML031W/NDC1], the protein stability index runs as follows: (doa10∆) 3.08 ± 0.061; (pdr5∆) 3.18 ± 0.067; (san1∆) 2.78 ± 0.047; (ubr1∆) 2.95 ± 0.035.

On to ESEQELSLHTGFIENCN [MTR3], for which the protein stability index is 2.62 ± 0.067 (doa10∆), 2.99 ± 0.067 (pdr5∆), 2.88 ± 0.063 (san1∆) and 2.93 ± 0.053 (ubr1∆).

Consider ESESERKYDLFQNLELE [SMC2], for which the protein stability index runs as follows: (doa10∆) 3.37 ± 0.074; (pdr5∆) 3.33 ± 0.077; (san1∆) 3.35 ± 0.068; (ubr1∆) 3.3 ± 0.072.

ESFAELMTKLNSFKLFK [RPC17] yielded a protein stability index (doa10∆) of 3.03 ± 0.1, a protein stability index (pdr5∆) of 2.71 ± 0.086, a protein stability index (san1∆) of 1.59 ± 0.099 and a protein stability index (ubr1∆) of 2.06 ± 0.081.

ESGKVFIGRLPIMLRSK [RPB2]: the protein stability index (doa10∆) was 2.83 ± 0.1, the protein stability index (pdr5∆) amounted to 2.67 ± 0.062, the protein stability index (san1∆) amounted to 2.94 ± 0.08 and the protein stability index (ubr1∆) was 2.79 ± 0.058.

For ESLKNLNESRSQHKKIL [SMC3], the protein stability index (doa10∆) was 2.78 ± 0.13, the protein stability index (pdr5∆) was determined as 3.05 ± 0.098, the protein stability index (san1∆) was determined as 2.85 ± 0.1 and the protein stability index (ubr1∆) was 3.04 ± 0.096.

Turning to ESLTNSNMFDNSADVDM [YGL100W/SEH1], the protein stability index runs as follows: (doa10∆) 3.34 ± 0.085; (pdr5∆) 3.57 ± 0.086; (san1∆) 3.48 ± 0.056; (ubr1∆) 3.36 ± 0.093.

For ESMAYTAFQTQRTAQDR [YML031W/NDC1], the protein stability index stood at 3.27 ± 0.076 (doa10∆), 3.27 ± 0.099 (pdr5∆), 3.23 ± 0.067 (san1∆) and 2.85 ± 0.16 (ubr1∆).

ESNDRINKIVEILTNQQ [YGR119C/NUP57]: the protein stability index is 2.77 ± 0.23 (pdr5∆), 2.57 ± 0.13 (san1∆) and 2.23 ± 0.085 (ubr1∆).

Take ESNIKMTLEDNNVTSNP [SSN2]: the protein stability index turned out to be 2.91 ± 0.092 (doa10∆), 3.25 ± 0.11 (pdr5∆), 2.68 ± 0.086 (san1∆) and 2.95 ± 0.055 (ubr1∆).

Regarding ESRAQNVFGQDNEDSDN [SWI3], the protein stability index was determined as 3.24 ± 0.1 (doa10∆), 3.16 ± 0.075 (pdr5∆), 3.33 ± 0.048 (san1∆) and 3.2 ± 0.052 (ubr1∆).

Take ESRSFSPIPFPPLTYKN [PRP8]: the protein stability index reads like this: (doa10∆) 3.04 ± 0.074; (pdr5∆) 3 ± 0.08; (san1∆) 2.6 ± 0.058; (ubr1∆) 2.62 ± 0.047.

With ESYYNWKYNNFLQKFEI [YML103C/NUP188], the protein stability index reads like this: (doa10∆) 2.47 ± 0.056; (pdr5∆) 2.83 ± 0.052; (san1∆) 2.77 ± 0.059; (ubr1∆) 2.72 ± 0.034.

ETAAMASLALAHVFVGT [RPN1]: the protein stability index (doa10∆) is 1.39 ± 0.044, the protein stability index (pdr5∆) is 1.58 ± 0.047, the protein stability index (san1∆) came to 1.61 ± 0.098 and the protein stability index (ubr1∆) amounted to 1.41 ± 0.052.

As to ETALEFLEKEKQLTLLR [SMC4], the protein stability index by setting is: (doa10∆) 3.46 ± 0.1; (pdr5∆) 2.65 ± 0.074; (san1∆) 2.66 ± 0.12; (ubr1∆) 2.92 ± 0.058.

On to ETATLIMNELYRMKGGR [SMC3], for which the protein stability index by setting is: (doa10∆) 3.07 ± 0.088; (pdr5∆) 3.21 ± 0.12; (san1∆) 2.82 ± 0.1; (ubr1∆) 3.26 ± 0.084.

Consider ETFQDTFSGALGKQSSS [FAS2], for which the protein stability index came out at 3.23 ± 0.063 (doa10∆), 3.32 ± 0.066 (pdr5∆), 3.15 ± 0.039 (san1∆) and 3.11 ± 0.055 (ubr1∆).

In the case of ETLAYNSLKETLQDFHL [SNF2], the protein stability index runs as follows: (doa10∆) 2.88 ± 0.054; (pdr5∆) 3.04 ± 0.058; (san1∆) 2.61 ± 0.055; (ubr1∆) 2.7 ± 0.042.

Take ETLENNIVSVLTAGVNS [RPN11]: the protein stability index is, setting by setting: (doa10∆) 2.5 ± 0.1; (pdr5∆) 2.65 ± 0.076; (san1∆) 2.24 ± 0.11; (ubr1∆) 2.57 ± 0.09.

Regarding ETLVLDEADKMIDLGFE [PRP28], the protein stability index by setting is: (doa10∆) 3.18 ± 0.094; (pdr5∆) 3.22 ± 0.12; (san1∆) 3.31 ± 0.088; (ubr1∆) 3.08 ± 0.056.

Turning to ETLVLSYFSPINSSNEA [YCG1], the protein stability index reads like this: (doa10∆) 2.67 ± 0.096; (pdr5∆) 1.55 ± 0.087; (san1∆) 1.25 ± 0.19; (ubr1∆) 2.13 ± 0.055.

Regarding ETQLKVVTRSKEAFEEE [SMC1], the protein stability index (pdr5∆) amounted to 3.25 ± 0.15 and the protein stability index (ubr1∆) was 3.39 ± 0.085.

The sequence ETRNGKVKNQGADVTNT [YCS4] had a protein stability index (doa10∆) of 3.22 ± 0.1, a protein stability index (pdr5∆) of 3.45 ± 0.17, a protein stability index (san1∆) of 3.11 ± 0.072 and a protein stability index (ubr1∆) of 3.18 ± 0.076.

ETRRKTTTVLKRYANHT [RET1]: the protein stability index was determined as 2.14 ± 0.083 (doa10∆), 2.98 ± 0.084 (pdr5∆), 3.09 ± 0.045 (san1∆) and 2.94 ± 0.05 (ubr1∆).
